Measured values reported in PMC10926671.

Target: H3K27me3 peptide
Assay: ITC

Substance: MBP-BP1 (maltose-binding protein-tagged bromo-adjacent homology-plant homeodomain domain containing protein 1) (natural protein)
- Kd: 16.2 µM
